The values that follow come from patent US20150267232A1, “IN VIVO AND IN VITRO CARBENE INSERTION AND NITRENE TRANSFER REACTIONS CATALYZED BY HEME ENZYMES” (California Institute of Technology, priority 2012, published 2015).

Residue numbers refer to the chain shown, from its start. In names and notes the source's numbering stands.

The nature of assay [1]: P450BM3 compilation plate screen (GC, cyclopropane peaks). The format is biochemical. Conditions: P450BM3 variants; for ee (cis): (R,S)-(S,R), chiral β-CDX GC; for de: diastereomeric excess = ([cis] − [trans])/([cis] + [trans]); for Absolute activity: sum of the area of the cyclopropane peaks over the area of the internal standard.
Assay [2] in a line: N—H insertion, aniline with ethyl diazo acetate (EDA). Conditions: protein 10 uM, EDA 8.5 mM, aniline 20 mM, Na2S2O4 10 mM, 12 h; for % Yield: product 4.3. Type of assay: biochemical. The text has this:
We have found a variety of P450 variants to be general catalysts for carbenoid N—H insertion. We combined aniline with EDA in the presence of a reductant (Na2S2O4) under argon atmosphere and tested the mixture with seven P450BM3 variants previously identified as competent catalysts for cyclopropanation (Coelho, P. et al., Science. 2013, 339, 307-310). In choosing this set of P450s, we hypothesized that cyclopropanation activity could correlate with ability to generate the iron-carbenoid intermediate that is also necessary for N—H insertion. Whereas wild type BM3 (WT-BM3 (SEQ ID NO:1), Table 20, entry 1) provided only trace amounts of the desired product (4.3), a few variants gave 4.3 in good yields after 12 h at room temperature. In particular, variant H2-5-F10 which is derived from a thermostable P450BM3 lineage (Lewis, J. C. et al. ChemBioChem, 2010, 11, 2502-2505) and contains 15 mutation from WT-BM3 (SEQ ID NO:1), formed 4.3 in 47% yield and 473 turnovers (TTN) using 0.1% protein relative to EDA (entry 7). […] In contrast, when 1 mol % of the isolated hemin prosthetic group was used as catalyst, the single and double insertion products were produced in a 3.5 to 1 ratio (with a total product yield of 51%).
A representative procedure for P450-catalyzed N—H insertion is as follows. To an unsealed crimp vial, 60 μL of a P450 solution (67 or 133 μM) was added and the vial was sealed. A 12.5 mM solution of sodium dithionite in phosphate buffer (0.1 M, pH=8.0) was degassed by bubbling with argon in a 6 mL crimp-sealed vial. The headspace of the 2 mL vials containing P450 solution were flushed with argon (no bubbling). The buffer/dithionite solution (360 μL) was then added to each reaction vial via syringe, and the gas lines were disconnected from the vials. 10 μL of an 800 mM stock of aniline was added via a glass syringe, followed by 10 μL of a 340 mM stock of EDA (both stocks in MeOH). The reaction vials were then placed in a tray on a plate shaker and left to shake at 40 rpm. The final concentrations of the reagents were typically: 20 mM aniline, 8.5 mM EDA, 10 mM Na2S2O4, and 10 or 20 μM P450. After 12 h at 25° C., the vials were removed from the shaker and uncapped and 1 mL of cyclohexane was added, followed by 20 μL of a 20 mM solution of phenethyl alcohol (internal standard). The mixture was transferred to a 1.5 mL Eppendorf tube and vortexed and centrifuged (13,000×g, 1 min.). The organic layer was dried over sodium sulfate if necessary then analyzed by GC, with comparison to an authentically prepared sample that has been verified by proton NMR ([…], Varian, CDCl3).
Substitution is well-tolerated on the aniline partner on both the ortho and para positions. Reactions were analyzed by a Shimadzu GC with FID detector and J&W HP-5 column (30 m×0.32 mm, 0.25 μm film) and calibrated to an independently prepared sample of each product using phenethyl alcohol as internal standard. Reaction of aniline and EDA was also performed in milligram scale without any organic cosolvent to provide 4.3 in 65% isolated yield.
Calibration curves were plotted as follows. Yields of N—H insertion products were determined using calibration curves made with independently synthesized standards that have been verified by proton NMR, with comparison to known literature data (Baumann, L. K. et al. Organometallics. 2007, 26, 3995-4002; Anding, B. J. et al. Organometallics. 2013, 32, 2599-2607). Two stock solutions of product were made at 160 mM and 40 mM. To four or five samples containing 380 μL of buffer, product was added from either of the stock solutions such at a final concentration of 0.5-8.0 mM in 400 μL was obtained. 20 μL of internal standard was added to each eppendorf tube, then 1 mL of cyclohexane was added and the tubes were vortexed and centrifuged (13,000 ×g, 30 seconds). The organic layer was then analyzed by GC. The ratio of the areas under the internal standard and product peaks were plotted against the concentration for each solution. […]

B1: H2-4-D4: 9-10A TS + F87V, L75A, M177A, L181A, T268A, L437A (protein, listed as Bacillus megaterium)
chain: TIKEMPQPKTFGELKNLPLLNTDKPVQALMKIADELGEIFKFEAPGRVTRYLSSQRLIKEACDESRFDKNLSQAAKFARDFAGDGLVTSWTHEKNWKKAHNILLPSFSQQAMKGYHAMMVDIAVQLVQKWERLNADEHIEVSEDMTRLTLDTIGLCGFNYRFNSFYRDQPHPFIISAVRAADEVMNKLQRANPDDPAYDENKRQFQEDIKVMNDLVDKIIADRKARGEQSDDLLTQMLNGKDPETGEPLDDGNIRYQIITFLIAGHEATSGLLSFALYFLVKNPHVLQKVAEEAARVLVDPVPSYKQVKQLKYVGMVLNEALRLWPTAPAFSLYAKEDTVLGGEYPLEKGDEVMVLIPQLHRDKTVWGDDVEEFRPERFENPSAIPQHAFKPFGNGQRACIGQQFALHEATLVLGMMLKHFDFEDHTNYELDIKETATLKPKGFVVKAKSKKIPLGGIPSPSTEQSAKKVRKKAENAHNTPLLVLYGSNMGTAEGTARDLADIAMSKGFAPQVATLDSHAGNLPREGAVLIVTASYNGHPPDNAKQFVDWLDQASADEVKGVRYSVFGCGDKNWATTYQKVPAFIDETLAAKGAENIADRGEADASDDFEGTYEEWREHMWSDVAAYFNLDIENSEDNKSTLSLQFVDSAADMPLAKMHGAFSTNVVASKELQQPGSARSTRHLEIELPKEASYQEGDHLGVIPRNYEGIVNRVTARFGLDASQQIRLEAEEEKLAHLPLAKTVSVEELLQYVELQDPVTRTQLRAMAAKTVCPPHKVELEALLEKQAYKEQVLAKRLTMLELLEKYPACEMKFSEFIALLPSIRPRYYSISSSPRVDEKQASITVSVVSGEAWSGYGEYKGIASNYLAELQEGDTITCFISTPQSEFTLPKDPETPLIMVGPGTGVAPFRGFVQARKQLKEQGQSLGEAHLYFGCRSPHEDYLYQEELENAQSEGIITLHTAFSRMPNQPKTYVQHVMEQDGKKLIELLDQGAHFYICGDGSQMAPAVEATLMKSYADVHQVSEADARLWLQQLEEKGRYAKDVWAG
modifications: cytochrome P450NADPH-P-450 reductase precursor, cytochrome P450 (BM3), CYP102A1
notes: 9-10A TS + F87V, L75A, M177A, L181A, T268A, L437A
As for B1, in assay [1], the “ee (cis)” value was −84, the de is listed as 57 and the Absolute activity came out at 0.05244. Further, in assay [2], the TTn is 340 and the “% Yield” value was found to be 34%.

B2: H2A10: 9-10A TS + F87V, L75A, L181A, T268A (protein, listed as Bacillus megaterium)
chain: B1 chain with A177M, A437L
modifications: cytochrome P450NADPH-P-450 reductase precursor, cytochrome P450 (BM3), CYP102A1
notes: 9-10A TS + F87V, L75A, L181A, T268A
Turning to B2, in assay [1], the “ee (cis)” value is given as −94, the de is on record as −8 and the Absolute activity turned out to be 0.06642. For the same molecule, in assay [2], the TTn is 238 and the “% Yield” value turned out to be 24%.
